Tests used:
Experiment in all cases: holdup assay
Design in all cases: key: below the threshold = too weak to quantify, mostly under pKd 3.1 to 4
Details in all cases: plain residues with an end cap or a label only (N-terminal biotin on a linker: ahx)
[1] = molecular target: T1, SIPA1L2, Q9P2F8
T1 sequence (Q9P2F8 945-1036, limits assumed, looked up): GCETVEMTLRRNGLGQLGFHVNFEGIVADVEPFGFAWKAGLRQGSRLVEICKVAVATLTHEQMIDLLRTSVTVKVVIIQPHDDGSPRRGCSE

[2] = molecular target: GRIP2_5, Q9C0E4
[3] = molecular target: PTPN3, P26045
[4] = molecular target: T2, RHPN1, Q8TCX5
T2 sequence (Q8TCX5 508-602, limits assumed, looked up): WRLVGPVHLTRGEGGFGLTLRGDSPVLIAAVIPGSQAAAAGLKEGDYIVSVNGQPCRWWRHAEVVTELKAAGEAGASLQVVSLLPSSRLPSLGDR

[5] = molecular target: T3, LNX2_2, Q8N448
T3 sequence (Q8N448 334-432, limits assumed, looked up): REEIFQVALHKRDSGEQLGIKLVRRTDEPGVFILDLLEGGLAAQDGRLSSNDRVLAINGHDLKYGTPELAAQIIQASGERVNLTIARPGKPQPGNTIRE

[6] = molecular target: NHERF4_4, Q86UT5
[7] = molecular target: IL16_4, Q14005
[8] = molecular target: TJP1_2, Q07157
[9] = molecular target: LDB3, O75112
[10] = molecular target: GORASP1, Q9BQQ3
[11] = molecular target: Inadl_8, Q8NI35
[12] = molecular target: DLG5_1, Q8TDM6
[13] = molecular target: T4, NHERF3_3, Q5T2W1
T4 sequence (Q5T2W1 238-333, limits assumed, looked up): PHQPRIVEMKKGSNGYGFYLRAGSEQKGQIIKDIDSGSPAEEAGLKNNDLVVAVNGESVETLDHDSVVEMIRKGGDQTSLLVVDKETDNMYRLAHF

[14] = molecular target: MAST2, Q6P0Q8
[15] = molecular target: PICK1, Q9NRD5
[16] = molecular target: T5, ARHGAP21, Q5T5U3
T5 sequence (Q5T5U3 45-169, limits assumed, looked up): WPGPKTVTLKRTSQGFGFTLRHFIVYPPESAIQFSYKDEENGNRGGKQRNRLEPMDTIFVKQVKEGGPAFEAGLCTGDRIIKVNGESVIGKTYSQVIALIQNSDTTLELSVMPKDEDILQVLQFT

[17] = molecular target: T6, PDZRN3_1, Q9UPQ7
T6 sequence (Q9UPQ7 244-349, limits assumed, looked up): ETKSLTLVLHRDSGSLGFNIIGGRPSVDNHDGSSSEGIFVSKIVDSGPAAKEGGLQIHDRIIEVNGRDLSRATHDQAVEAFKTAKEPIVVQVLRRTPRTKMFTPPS

[18] = molecular target: IL16_1, Q14005
[19] = molecular target: T7, PCLO, Q9Y6V0
T7 sequence (Q9Y6V0 4491-4600, limits assumed, looked up): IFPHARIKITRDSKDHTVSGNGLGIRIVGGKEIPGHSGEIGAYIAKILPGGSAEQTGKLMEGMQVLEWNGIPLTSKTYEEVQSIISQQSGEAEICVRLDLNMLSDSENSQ

[20] = molecular target: T8, ARHGEF11, O15085
T8 sequence (O15085 42-136, limits assumed, looked up): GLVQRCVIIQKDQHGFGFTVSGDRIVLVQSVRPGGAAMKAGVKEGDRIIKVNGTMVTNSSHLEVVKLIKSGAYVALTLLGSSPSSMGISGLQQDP

[21] = molecular target: SNX27, Q96L92
[22] = molecular target: T9, MPP6, Q9NZW5
T9 sequence (Q9NZW5 125-219, limits assumed, looked up): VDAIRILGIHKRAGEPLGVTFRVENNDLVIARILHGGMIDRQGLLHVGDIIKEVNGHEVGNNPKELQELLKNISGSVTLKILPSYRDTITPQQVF

[23] = molecular target: NHERF2_2, Q15599
[24] = molecular target: T10, DLG3_2, Q92796
T10 sequence (Q92796 221-321, limits assumed, looked up): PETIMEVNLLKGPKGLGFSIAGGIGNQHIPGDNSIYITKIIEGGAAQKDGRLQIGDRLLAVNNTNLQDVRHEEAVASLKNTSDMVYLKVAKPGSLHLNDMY

[25] = molecular target: Inadl_2, Q8NI35
[26] = molecular target: T11, SHANK1, Q9Y566
T11 sequence (Q9Y566 658-767, limits assumed, looked up): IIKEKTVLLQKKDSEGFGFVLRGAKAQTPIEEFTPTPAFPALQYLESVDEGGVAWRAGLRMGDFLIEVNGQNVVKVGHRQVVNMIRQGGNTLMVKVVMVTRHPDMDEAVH

[27] = molecular target: MAST1, Q9Y2H9

Measured: pKd

Chain of NHERF4_4, Q86UT5 (Q86UT5 464-550): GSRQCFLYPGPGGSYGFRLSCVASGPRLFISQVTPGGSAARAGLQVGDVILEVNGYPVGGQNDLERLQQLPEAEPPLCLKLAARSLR
Chain of MAST2, Q6P0Q8 (Q6P0Q8 1099-1202): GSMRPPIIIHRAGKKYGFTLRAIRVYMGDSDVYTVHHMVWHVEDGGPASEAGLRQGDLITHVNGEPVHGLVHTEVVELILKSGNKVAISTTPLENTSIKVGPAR
Chain of MAST1, Q9Y2H9 (Q9Y2H9 962-1065): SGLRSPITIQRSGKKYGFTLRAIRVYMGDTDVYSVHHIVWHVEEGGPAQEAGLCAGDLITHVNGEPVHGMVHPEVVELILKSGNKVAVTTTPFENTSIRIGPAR
Chain of Inadl_8, Q8NI35 (Q8NI35 1425-1530): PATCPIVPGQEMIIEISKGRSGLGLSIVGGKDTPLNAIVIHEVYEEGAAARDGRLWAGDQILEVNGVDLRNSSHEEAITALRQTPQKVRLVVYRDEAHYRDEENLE
Chain of DLG5_1, Q8TDM6 (Q8TDM6 617-713): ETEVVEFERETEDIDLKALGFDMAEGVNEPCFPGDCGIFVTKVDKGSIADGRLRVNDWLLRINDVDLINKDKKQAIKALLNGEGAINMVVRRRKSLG
Chain of GORASP1, Q9BQQ3 (Q9BQQ3 1-208): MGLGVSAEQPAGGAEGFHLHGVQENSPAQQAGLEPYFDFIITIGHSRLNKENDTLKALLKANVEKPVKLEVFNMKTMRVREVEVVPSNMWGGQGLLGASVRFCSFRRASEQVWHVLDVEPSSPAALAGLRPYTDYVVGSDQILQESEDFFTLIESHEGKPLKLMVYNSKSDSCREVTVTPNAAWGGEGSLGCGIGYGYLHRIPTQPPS
Chain of IL16_4, Q14005 (Q14005 1229-1329): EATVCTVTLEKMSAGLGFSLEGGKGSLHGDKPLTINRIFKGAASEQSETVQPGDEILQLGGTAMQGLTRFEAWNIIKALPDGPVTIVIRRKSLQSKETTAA
Chain of Inadl_2, Q8NI35 (Q8NI35 238-335): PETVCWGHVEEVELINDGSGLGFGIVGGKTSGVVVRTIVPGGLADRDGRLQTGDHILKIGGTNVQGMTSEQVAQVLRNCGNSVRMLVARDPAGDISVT
Chain of LDB3, O75112 (O75112 1-94): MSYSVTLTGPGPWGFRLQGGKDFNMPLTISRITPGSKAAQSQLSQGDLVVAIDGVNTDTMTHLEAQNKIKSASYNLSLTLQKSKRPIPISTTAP
Chain of NHERF2_2, Q15599 (Q15599 142-238): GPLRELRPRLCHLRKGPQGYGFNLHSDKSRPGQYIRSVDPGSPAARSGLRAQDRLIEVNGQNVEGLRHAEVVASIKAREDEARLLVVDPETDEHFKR
Chain of TJP1_2, Q07157 (Q07157 181-274): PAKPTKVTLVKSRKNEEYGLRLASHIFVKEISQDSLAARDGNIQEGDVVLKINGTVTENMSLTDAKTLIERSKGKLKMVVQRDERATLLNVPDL
Chain of PICK1, Q9NRD5 (Q9NRD5 17-115): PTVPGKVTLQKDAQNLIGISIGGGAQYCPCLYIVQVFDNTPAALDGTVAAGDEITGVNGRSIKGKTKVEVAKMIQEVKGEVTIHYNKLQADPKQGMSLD
Chain of PTPN3, P26045 (P26045 505-587): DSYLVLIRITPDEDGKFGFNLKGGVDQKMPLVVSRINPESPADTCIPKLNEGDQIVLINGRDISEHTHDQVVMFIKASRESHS
Chain of IL16_1, Q14005 (Q14005 210-306): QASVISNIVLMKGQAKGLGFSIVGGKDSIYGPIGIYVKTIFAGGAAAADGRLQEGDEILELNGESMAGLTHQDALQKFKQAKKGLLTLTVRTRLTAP
Chain of GRIP2_5, Q9C0E4 (Q9C0E4 544-642): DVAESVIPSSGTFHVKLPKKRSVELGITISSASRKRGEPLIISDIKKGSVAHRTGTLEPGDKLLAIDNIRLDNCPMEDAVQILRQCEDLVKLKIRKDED

B1: SHROOM3, Q8TF72 (peptide)
chain: GIFPTLTSPL
4.25: [14]
3.66: [23]
4.8: [26]
3.91: [21]
3.5: [27]
4.27: [4]
3.99: [3]
3.49: [17] | [20]
below the threshold: all other assays above

From paper PMC9482650, “Quantitative fragmentomics allow affinity mapping of interactomes” (Nature Communications, 2022)
